doi:10.1101/2024.06.25.600625 (bioRxiv, 2024)
Blank lines part the entries; values can stand above or below the binder they belong to.

B1: C-terminally FlAsH-labeled p23 (natural protein)
chain: MQPASAKWYDRRDYVFIEFCVEDSKDVNVNFEKSKLTFSCLGGSDNFKHLNEIDLFHCIDPNDSKHKRTDRSILCCLRKGESGQSWPRLTKERAKLNWLSVDFNNWKDWEDDSDEDMSNFDRFSEMMNNMGGDEDVDLPEVDGADDDSQDSDDEKMPDLE
modifications: FlAsH-EDT2 label on the C-terminal tetra-cysteine tag
B3: human Hsp90α Y38F,Y61E,Y197E (natural protein)
chain: not shown
B4: human Hsp90α Y38F,Y61F,Y197E (natural protein)
chain: not shown
B5: human Hsp90α Y38E,Y61F,Y197E (natural protein)
chain: not shown

What was measured:
Assay in all cases: fluorescence polarisation
human Hsp90α Y61E = human Hsp90α Y61E (human, UniProt P07900 1-732, Y61E)
[1] = target: human Hsp90α Y38F,Y61F,Y197F (human, UniProt P07900 1-732, Y38F | Y61F | Y197F)
wild-type human Hsp90α = wild-type human Hsp90α (human, UniProt P07900 1-732)
human Hsp90α Y61F = human Hsp90α Y61F (human, UniProt P07900 1-732, Y61F)
human Hsp90α Y197E = human Hsp90α Y197E (human, UniProt P07900 1-732, Y197E)
[2] = target: B5
human Hsp90α Y197F = human Hsp90α Y197F (human, UniProt P07900 1-732, Y197F)
[3] = target: B3
human Hsp90α Y38F = human Hsp90α Y38F (human, UniProt P07900 1-732, Y38F)
[4] = target: B4
[5] = target: T1, N-terminally FlAsH-labeled CDC37 (UniProt Q16543 1-378, FlAsH-EDT2 label on the N-terminal tetra-cysteine tag)
T1 sequence: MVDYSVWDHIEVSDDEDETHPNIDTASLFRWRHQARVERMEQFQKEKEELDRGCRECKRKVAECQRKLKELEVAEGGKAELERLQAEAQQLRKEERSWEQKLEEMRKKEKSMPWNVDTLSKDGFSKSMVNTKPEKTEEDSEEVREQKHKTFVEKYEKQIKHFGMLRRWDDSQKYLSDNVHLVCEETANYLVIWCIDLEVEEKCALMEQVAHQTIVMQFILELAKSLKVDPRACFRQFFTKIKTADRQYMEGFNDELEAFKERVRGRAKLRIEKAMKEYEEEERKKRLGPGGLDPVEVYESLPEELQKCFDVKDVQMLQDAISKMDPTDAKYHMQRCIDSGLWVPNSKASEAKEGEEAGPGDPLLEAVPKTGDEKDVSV

[6] = target: B1

Binder: B1
binding result (human Hsp90α Y61E): binds
binding result [1]: binds
binding result (wild-type human Hsp90α): binds
binding result (human Hsp90α Y61F): binds
binding result (human Hsp90α Y197E): binds
binding result [2]: binds
binding result (human Hsp90α Y197F): binds
binding result [3]: binds
binding result (human Hsp90α Y38F): binds
binding result [4]: binds

binding result (wild-type human Hsp90α): binds
B2: unlabeled p23 (natural protein)
chain: MQPASAKWYDRRDYVFIEFCVEDSKDVNVNFEKSKLTFSCLGGSDNFKHLNEIDLFHCIDPNDSKHKRTDRSILCCLRKGESGQSWPRLTKERAKLNWLSVDFNNWKDWEDDSDEDMSNFDRFSEMMNNMGGDEDVDLPEVDGADDDSQDSDDEKMPDLE

Binder: B3
fold increase of KD against all other Hsp90 variants [5]: 2 fold

Binder: B4
fold increase of KD against all other Hsp90 variants [5]: 2 fold

Binder: B5
fold increase of KD against all other Hsp90 variants [5]: 2 fold

fold increase of KD (reference not named, wild type implied) [6]: 3.5 fold
B6: human Hsp90α Y38E (natural protein)
chain: not shown
